Results reported in PMC2676315.

Columns and labels:
Assay in all cases: other fluorescence titration; quenching of the tryptophan fluorescence of SET/TAF-Iβ polypeptides (0.2 to 4 μM; excitation 295 nm, emission 345 nm) on addition of histone; PBS, 25°C; non-linear regression; three repeats
[1] = target: SET/TAF-Iβ (1–210), GST removed (human) (UniProt Q01105)
[2] = target: SET/TAF-Iβ (110–277), GST removed (human) (UniProt Q01105)
[3] = target: SET/TAF-Iβ (76–210), GST removed (human) (UniProt Q01105)
[4] = target: SET/TAF-Iβ (1–277), GST removed (human) (UniProt Q01105)
[5] = target: SET/TAF-Iβ (76–185), GST removed (human) (UniProt Q01105)

Kd [1] [nM]	Kd [2] [nM]	Kd [3] [nM]	Kd [4] [nM]	Kd [5] [nM]	Substance
130	160	140	150	100	calf thymus histone H3 (from UniProt P68432 1-136) (natural protein)
			2870		histone H2B (from UniProt P62808 1-126) (natural protein)
